What was measured:
[1] = system: seq129.1_CID-SmBiT and mini11-LgBiT; experiment: Cortisol sensing with NanoBiT fusions (luminescence on cortisol titration); format: biochemical; conditions: seq129.1_CID-SmBiT and mini11-LgBiT mixed equimolar, cortisol 2-3 hours, DTZ 25 μM; estimated; read-out: EC50 of luminescent signal on cortisol titration
From the text: FIG. 2. Design and characterization of a cortisol-dependent heterodimer. (A) Design pipeline for cortisol-induced heterodimerization. Starting from a model of seq129.1_CID in complex with cortisol (top), we used RIFdock™ and a library of designed 3-helix bundles to generate thousands of putative ternary complexes (middle), and amino acid sequences encoding these complexes were generated with FastDesign™ and ProteinMPNN™ (bottom). Zoom-in of the designed CID ternary complex (seq129.1_CID, mini11, and cortisol) (bottom panel). (B) Size-exclusion chromatography traces of an equimolar solution of seq129.1 and mini11 (1 μM) in the presence or absence of cortisol (10 μM). (C) Schematic diagram of the designed cortisol-induced heterodimerization coupled with a binary split luciferase to create a biosensor. […]
As a proof-of-concept for the application of the designed CID as a sensor for cortisol, we genetically fused seq129.1_CID and mini11 to the SmBiT and LgBiT components of the NanoBiT™ system, respectively, which reconstitutes NanoBiT™ and generates luminescence when brought in close proximity by a molecular interaction 18.
seq129.1_CID and mini11 were genetically fused to SmBiT and LgBiT, respectively, and ordered as eblocks from IDT. […] Immediately after adding DTZ, the luminescent signal was measured on a Neo2 plate reader. […]

[2] = biological target: T1, seq129.1_CID-SmBiT; experiment: cell-based or functional assay
T1 chain: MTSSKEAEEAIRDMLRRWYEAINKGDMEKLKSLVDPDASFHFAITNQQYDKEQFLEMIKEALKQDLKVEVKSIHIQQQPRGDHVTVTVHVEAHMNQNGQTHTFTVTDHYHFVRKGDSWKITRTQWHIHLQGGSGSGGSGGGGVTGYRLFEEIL

[3] = system: seq129.1_CID; experiment: Native mass spectrometry of the ternary complex; format: binding; conditions: cortisol and mini11

Molecule: C[C@]12CCC(=O)C=C1CC[C@@H]1[C@@H]2[C@@H](O)C[C@@]2(C)[C@H]1CC[C@]2(O)C(=O)CO [cortisol]
- EC50 [1]: 25 nM

B1: mini11-LgBiT (designed binder)
chain: MSSASTLVKTFSLCMEALSIEDPEKREEVYEKARKLAEENNDPAALFLVESIKKQHEQSGGSGGMVFTLEDFVGDWEQTAAYNLDQVLEQGGVSSLLQNLAVSVTPIQRIVRSGENALKIDIHVIIPYEGLSADQMAQIEEVFKVVYPVDDHHFKVILPYGTLVIDGVTPNMLNYFGRPYEGIAVFDGKKITVTGTLWNGNKIIDERLITPDGSMLFRVTINS
- luminescent signal of reconstituted NanoBiT on titration with cortisol (the EC50 is a cortisol concentration) [2]: 25 nM

B2: mini11: designed 3-helix bundle minibinder that binds seq129.1_CID only with cortisol (protein)
chain: MSSASTLVKTFSLCMEALSIEDPEKREEVYEKARKLAEENNDPAALFLVESIKKQHEQSSSLE
- ternary complex by native mass spectrometry [3]: revealed a molecular weight for the seq129.1_CID-cortisol-mini11 ternary complex

Source: patent US20250154213A1, “De Novo Designed Cortisol Biosensor” (University of Washington, priority 2023, published 2025)
